Data published in US20090170750A1 (Novo Nordisk, published 2009).
Numbering of substitutions follows the chain as printed. Names may count otherwise. Bridges are numbered along the chain shown (N, C = ends). Where no end group is shown, it is not given here.

B1: B(1-29)-B27E-B29A-TGLGKGQ-A(1-21)-A18Q Human insulin (PAK1845) (ligand)
chain: FVNQHLCGSHLVEALYLVCGERGFFYEPATGLGKGQGIVEQCCTSICSLYQLEQYCN
modifications: disulfide 19-56, 42-47, 7-43
B2: B(1-29)-B29A-TGLGKGQ-A(1-21)-A18Q Human insulin (PAK1837) (ligand)
chain: B1 chain with E27T
modifications: disulfide 19-56, 42-47, 7-43
B3: single-chain insulin PAK 1735, connecting peptide VGRSSGK [A21G] (ligand)
chain: FVNQHLCGSHLVEALYLVCGERGFFYTPKVGRSSGKGIVEQCCTSICSLYQLENYCG
modifications: disulfide 19-56, 42-47, 7-43
B4: single-chain insulin PAK 1873, connecting peptide KGLSSGQ [B29A_A18Q] (ligand)
chain: B1 chain with E27T, T30K, G33S, K34S
modifications: disulfide 19-56, 42-47, 7-43
B5: single-chain insulin PAK 1896, connecting peptide VGLSSGQ [B29A_A18Q_A22K] (ligand)
chain: FVNQHLCGSHLVEALYLVCGERGFFYTPAVGLSSGQGIVEQCCTSICSLYQLEQYCNK
modifications: disulfide 19-56, 42-47, 7-43
B6: single-chain insulin PAK 1861, connecting peptide VGLGKGPGAGK [A18Q_A21G] (ligand)
chain: FVNQHLCGSHLVEALYLVCGERGFFYTPKVGLGKGPGAGKGIVEQCCTSICSLYQLEQYCG

Each molecule was assayed against human IGF-1 receptor (human) (UniProt P08069) (assay: competition with 125I-IGF-1 (SPA)).

Molecule | Human IGF-1 receptor binding [%] | Human IGF-1 receptor binding relative to human insulin [%]
single-chain insulin B(1-29)-TRLSQGR-A(1-21) (from UniProt P01308 25-53; P01308 90-110) (ligand) | 0.05 | –
single-chain insulin B(1-29)-TRSSNGR-A(1-21) (from UniProt P01308 25-53; P01308 90-110) (ligand) | 0.1 | –
single-chain insulin PAK 1708, connecting peptide VGSRSGK (from UniProt P01308 25-53; P01308 90-110) (ligand) | – | 0.2
single-chain insulin PAK 1709, connecting peptide VGRSSGK (SEQ ID NO:105) (from UniProt P01308 25-53; P01308 90-110) (ligand) | – | 0.5
single-chain insulin PAK 1766, connecting peptide VGSSSGK (from UniProt P01308 25-53; P01308 90-110) (ligand) | – | 0.05
single-chain insulin PAK 1638077, connecting peptide VGSSRGK (from UniProt P01308 25-53; P01308 90-110) (ligand) | – | 0.1
single-chain insulin PAK 1687033, connecting peptide VGSYSGK (from UniProt P01308 25-53; P01308 90-110) (ligand) | – | 0.2
single-chain insulin PAK 1687046, connecting peptide VGSMSGK (from UniProt P01308 25-53; P01308 90-110) (ligand) | – | 0.1
single-chain insulin PAK 1688007, connecting peptide VGYSSGK (from UniProt P01308 25-53; P01308 90-110) (ligand) | – | 0.2
single-chain insulin PAK 1688011, connecting peptide VGLSSGK (from UniProt P01308 25-53; P01308 90-110) (ligand) | – | 0.1
single-chain insulin PAK 1688028, connecting peptide VGMSSGK (SEQ ID NO:106) (from UniProt P01308 25-53; P01308 90-110) (ligand) | – | 0.2
single-chain insulin with connecting peptide RGSSGK (SEQ ID NO:114), no PAK number printed (from UniProt P01308 25-53; P01308 90-110) (ligand) | – | 0.5
single-chain insulin with connecting peptide VGHSSGK (SEQ ID NO:108), no PAK number printed (from UniProt P01308 25-53; P01308 90-110) (ligand) | – | 0.15

What follows are molecules tested against purified recombinant human insulin receptor-exon 11 (human) (UniProt P06213) (assay: competition with 125I-insulin (SPA)).

Molecule | IR, binding relative to human insulin [%]
single-chain insulin PAK 1879, connecting peptide VGLSSGQ [B29A_A18Q] (from UniProt P01308 25-53; P01308 90-110) (ligand) | 92
single-chain insulin PAK 1880, connecting peptide VGLSSGQ [B1G_B3Q_A18Q_A21G] (from UniProt P01308 25-53; P01308 90-110) (ligand) | 54
single-chain insulin PAK 1884, connecting peptide VGLSSGQ [B29A_A8K_A18Q] (from UniProt P01308 25-53; P01308 90-110) (ligand) | 89
single-chain insulin PAK 1891, connecting peptide TGLGSGQ [B10A_A18Q] (from UniProt P01308 25-53; P01308 90-110) (ligand) | 34
single-chain insulin PAK 1892, connecting peptide TGLGSGQ [desB1_B3Q_B10A_A18Q] (from UniProt P01308 26-53; P01308 90-110) (ligand) | 38
single-chain insulin PAK 1893, connecting peptide TGLGSGQ [B10Q_A18Q] (from UniProt P01308 25-53; P01308 90-110) (ligand) | 51
single-chain insulin PAK 1894, connecting peptide TGLGSGQ [desB1_B3Q_B10Q_A18Q] (from UniProt P01308 26-53; P01308 90-110) (ligand) | 38
single-chain insulin PAK 1769013, connecting peptide QVGSSSGK [A18Q_A21G] (from UniProt P01308 25-53; P01308 90-110) (ligand) | 33
single-chain insulin PAK 1769015, connecting peptide EVGSSSGK [A18Q_A21G] (from UniProt P01308 25-53; P01308 90-110) (ligand) | 42
single-chain insulin PAK 1769020, connecting peptide SVGSSSGK [A18Q_A21G] (from UniProt P01308 25-53; P01308 90-110) (ligand) | 51
single-chain insulin PAK 1769027, connecting peptide LVGSSSGK [A18Q_A21G] (from UniProt P01308 25-53; P01308 90-110) (ligand) | 68
single-chain insulin PAK 1769033, connecting peptide PVGSSSGK [A18Q_A21G] (from UniProt P01308 25-53; P01308 90-110) (ligand) | 37
single-chain insulin PAK 1769040, connecting peptide VVGSSSGK [A18Q_A21G] (from UniProt P01308 25-53; P01308 90-110) (ligand) | 29
single-chain insulin PAK 1769053, connecting peptide GVGSSSGK [A18Q_A21G] (from UniProt P01308 25-53; P01308 90-110) (ligand) | 37
single-chain insulin PAK 1769062, connecting peptide PVGSSSGK [A18Q_A21G] (from UniProt P01308 25-53; P01308 90-110) (ligand) | 56
single-chain insulin with connecting peptide GGSSGK (SEQ ID NO:116), no PAK number printed (from UniProt P01308 25-53; P01308 90-110) (ligand) | 23
single-chain insulin with connecting peptide LGSSGK (SEQ ID NO:113), no PAK number printed (from UniProt P01308 25-53; P01308 90-110) (ligand) | 49
single-chain insulin with connecting peptide QGSSGK (SEQ ID NO:110), no PAK number printed (from UniProt P01308 25-53; P01308 90-110) (ligand) | 36
single-chain insulin with connecting peptide QGSSGK (SEQ ID NO:115), no PAK number printed (from UniProt P01308 25-53; P01308 90-110) (ligand) | 34
single-chain insulin with connecting peptide RGSSGK (SEQ ID NO:114), no PAK number printed (from UniProt P01308 25-53; P01308 90-110) (ligand) | 54

What follows are molecules tested against T1, purified recombinant human insulin receptor-exon 11 (human, UniProt P06213-2 28-1370, limits assumed) (assay: competition with 125I-insulin (SPA)).
T1 construct: also called IR
Description: A total of 100 μl was then added and a dilution series is made from appropriate samples. To the dilution series was then added 100 μl of reagent mix and the samples were incubated for 16 hours while gently shaken. The phases were the then separated by centrifugation for 1 min and the plates counted in a Topcounter. The binding data were fitted using the nonlinear regression algorithm in the GraphPad Prism 2.01 (GraphPad Software, San Diego, Calif.).

Molecule | IR, binding relative to human insulin [%]
B1 | 20
B2 | 71
B3 | 143
B4 | 60
B5 | 38
B6 | 36
